Data from the supplement of paper PMC9170038.

Columns and labels:
MS2 coat protein [1] = assay: apparent KD of MS2 coat protein, switch ON state; designed switch direction (-1 OFF switch, 1 ON switch): -1; higher = weaker reporter binding; conditions: FMN input: 0 or 200 uM; Eterna round: R93 (includes R88 designs)
How it was run: (§1)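 The buffer was 100 mM Tris-HCl pH 7.5 with 80 mM KCl and 4 mM MgCl2, used without or with constant ligand. In it, RNA switches transcribed on-chip from Illumina sequencing clusters were titrated with SNAP-549-labelled MS2 coat protein in twofold steps from 0.7 or 1.5 nM to 3 µM. Apparent KD for each design is the median of its normalised cluster binding-curve fits.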

MS2 coat protein [2] = assay: apparent KD of MS2 coat protein, switch OFF state (with FMN for OFF switches, without FMN for ON switches); designed switch direction (-1 OFF switch, 1 ON switch): -1; higher = weaker reporter binding; conditions: FMN input: 0 or 200 uM; Eterna round: R93 (includes R88 designs)
How it was run: as §1

| Sequence | apparent KD of MS2 coat protein (MS2 coat protein [1]) [nM] | apparent KD of MS2 coat protein (MS2 coat protein [2]) [nM] |
| --- | --- | --- |
| AGAAAACAUGAGGAUCACCCAUGUCAGGAUAUCCAAAUAAAAAUAAAAUAAAAUAAAAGGAGAAGGGACAAAAG [May 1] | 49.2 | 66.9 |
| AGAAAACAUGAGGAUCACCCAUGUCAGGAUAUCUAAAAGAAAAGAAAAGAAAGAAGAAGGAGAAGGGACAAGAA [Djoser] | 21.2 | 21.8 |
| AGAAACGUAGGAUAUACAUGAGGAUCACCCAUGUAAAGAAAGAAGGGAGCCACAAGAAGUAGAAGGACGAAGAA [JR_Exc003_Sub004] | 33.4 | 131 |
| AGAAAGCGAGGAUAUGCACGGGAAGAAAGAAGAGAGAAAAAACAUGAGGAUCACCCAUGUAGAAGGUGUAUAAA [JR_Exc002_Sub1713] | 38.4 | 25.8 |
| AGAUCAUCAGGAUAUACAUAGGUGAAAAAAGUAAAUCCACUACAUGAGGAUCACCCAUGUAGAAGGGAUGAUCA [Ex2 Design 176: Random 4] | 39.1 | 30.3 |
| AGCUAGUCAGGAUAUACAAAGAUGUCGAAAGACGUCAAGGGACAUGAGGAUCACCCAUGUAGAAGGGACUAGCA [Mod of Janderson's WEB Mod v.3] | 56.2 | 197 |
| AGCUAGUCAGGAUAUACGAAAAUGUCAGAAGCUGUGAAGGGACAUGAGGAUCACCCAUGUAGAAGGGACUAGCA [Diamond 38] | 69.1 | 218 |
| AGCUAGUCAGGAUAUACGAACAGGUCAAAAGACGUAAGGGAACAUGAGGAUCACCCAUGUAGAAGGGACUAGCA [Diamond 52] | 32.9 | 84.3 |
| AGCUAGUCAGGAUAUACGAACAUGUCAAAAGACGAGAAGGGACAUGAGGAUCACCCAUGUAGAAGGGACUAGCA [Diamond 21] | 87.5 | 198 |
| AGCUAGUCAGGAUAUACGAACAUGUCAAAAGACGUGAGAGAACAUGAGGAUCACCCAUGUAGAAGGGACUAGCA [Mat - Exclusion 2 - JL-Eli mod - D47] | 18.7 | 13.1 |
| AGCUAGUCAGGAUAUACGAGAAUGAAAGAAGACGUGAAGGGACAUGAGGAUCACCCAUGUAGAAGGGACUAGCA [Diamond 25] | 36.1 | 80.3 |
| AGCUAGUCAGGAUAUGCGAAUAUGUCAAAAGACGUGAAGGGACAUGAGGAUCACCCAUGUAGAAGGGACUAGCA [Diamond 3] | 32.4 | 36.5 |
| AGCUUCAGAGGAUAUACUUGAGUGAUAAAAGUCUGAUAACUACAUGAGGAUCACCCAUGUAGAAGGCUGUAGCA [Ex2 Design 168: Sub-opt 32] | 19.1 | 46 |
| AGGAAACAUGAGGAUCACCCAUGUAAGGAUAUCAGAAAGAAAAGAAAAGAAAGAAGAAUGAGAAGGUACAAGAA [Horus Bird] | 29.1 | 34 |
| AGGAAACAUGAGGAUCACCCAUGUUAGGAUAUGAACGAAAAUAAAUAAAAAUAAAAGUUCAGAAGGGACAAAAA [66%, Wbt, 19] | 38.4 | 39.6 |
| AGGGAACAUGAGGAUCACCCAUGUGAGGAUAUACAAAAGAAAAGAAAAGAAAGAAGAAGUAGAAGGUACAAGAA [Neferka] | 23.9 | 43.9 |
| AGGGAACAUGAGGAUCACCCAUGUGAGGAUAUUCAAAAGAAAAGAAAAGAAAGAAGAAGAAGAAGGUACAAGAA [Neferkare Pepi II] | 42.9 | 36.9 |
| AGGUAGUCAGGAUAUACAAACAUGUCAAAAGACGUGAAAAAACAUGAGGAUCACCCAUGUAGAAGGGACUACCA [Mat - Exclusion 2 - JL mod - D21] | 18 | 16.3 |
| AGUCAGAGAGGAUAUACAUGGGAAAAAAAAGUAAGAUCCCUACAUGAGGAUCACCCAUGUAGAAGGCUCUGACA [Ex2 Design 139: Sub-opt 3] | 22.6 | 20.2 |
| AGUCAUACAGGAUAUACAUGAGGAUCACCCAUGUAAAUCCUAAAAAGAAAAAACUCAUGUAGAAGGGUAUGACA [EX3 223: Super Stable 23] | 16.1 | 39.2 |
| AGUCGGCGAGGAUAUACAUGAGGAUCACCCAUGUGAGAGAAAAAAGUGAGAAAGAAAUGUAGAAGGCGCUGACA [JL Lego Mod 1] | 90.8 | 36.8 |
| AGUGAGUGAGGAUAUGACUGAAGAAUAAAAGAAAUAACAAGUCAGAAGGCACAUGAGGAUCACCCAUGUACACA [May 60] | 28.8 | 25.6 |
| AGUUAGCGAGGAUAUACAUGAGGAUCACCCAUGUGAGAGAAAAAAGUGAGAAAGAAAAGUAGAAGGCGCUAACA [Moding Norbert Elias (73)] | 42.3 | 119 |

| Sequence | apparent KD of MS2 coat protein (MS2 coat protein [1]) [nM] | apparent KD of MS2 coat protein (MS2 coat protein [2]) [nM] |
| --- | --- | --- |
| AGUUGGCGAGGAUAUACAUGAGGAUCACCCAUGUAAGAGUAAAGAGUGAGAAAGAGAAGUAGAAGGCGCUGACA [Ruby 57] | 53 | 247 |
| AGUUGGCGAGGAUAUACAUGAGGAUCACCCAUGUGAGAGAAAAAAGUGAGAAAGAAAAGUAGAAGGCGCUCACA [JL Lego Mod 12] | 62.1 | 49.7 |
| AUAGGCCUAGGAUAUACAUGAGGAUCACCCAUGUUAAUAUUUCAAACAUGAUAAACGUGUAGAAGGAGGAAUAA [JR_Exc003_Sub303] | 41.7 | 50.8 |
| AUAGGUCAAGGAUAUACAUGAGGAUCACCCAUGUAAAUAACUCCAUAAAACUCCACAAGUAGAAGGUGAAAUAA [JR_Exc003_Sub202] | 17.9 | 15.8 |
| AUAGUACAUGAGGAUCACCCAUGUCAGGAUAUUGGAUAUGACAUGAAAAAAAUGUUAACGAGAAGGGACUAUAA [EX1 Malc#17] | 58.6 | 80.7 |
| AUCAUGUUAGGAUAUUAAAGAAAAGAAAAGAAAGAAAAGAAUAAGAAGGAACAUGAGGAUCACCCAUGUAAGAA [EteRNA is fun!] | 30.4 | 29.7 |
| AUGUAGGGAGGAUAUACAUAGAUACAGAUUCGUGUAGAACUACAUGAGGAUCACCCAUGUAGAAGGCCCUAAAA [Mat - Same state - Mayanna Mod - D124] | 20.1 | 43.1 |
| CAAAAACAUGAGGAUCACCCAUGUGAGGAUAUACGAAAGUAGAAGGCACUAAAACAAAACAGAAGGACAAAACA [Meechl Ex1 R2 m3] | 17.9 | 24.6 |
| CAGAGACAUGAGGAUCACCCAUGUUAGGAUAUGCGUGAAAGAAAAAAAAAGUUAAAAAGCAGAAGGAACAGAGG [JR_Exc001_Sub310] | 152 | 33.6 |
| CAGUACUGAGGAUAUACAUGAGGAUCACCCAUGUGAAAAAGCUACGAAAGUAGCACAUGUAGAAGGCAGUACUG [Ex3: 807] | 319 | 281 |
| CAGUACUGAGGAUAUACAUGAGGAUCACCCAUGUGAUCAAGCUACGAAAGUAGCAAAUGUAGAAGGCAGUACUG [Ex3: 809] | 40.7 | 31.7 |
| CAUAAACAUGAGGAUCACCCAUGUGAGGAUAUGAUAUUACUAGGACGGCUGUAAUCAAUCAGAAGGCACAUCAA [JR_Exc--1_Sub1206] | 22.5 | 41.5 |
| CCCAUGUCAGGAUAUCAGUAGUAAAAAAAAAAAAUUACUACUGAGAAGGGACAUGAGGAUCACCCAUGUCCCUU [EX4 314: Super Stable 14] | 16.9 | 14.2 |
| CCUGUGUGAGGAUAUGGUAUAAAAAAAAAAAAAUAGCUCCUCCAGAAGGCACAUGAGGAUCACCCAUGUCGUGG [Jolly's Folly 17 - Jieux - Exclusion 4] | 26.9 | 57.1 |
| CGCAAGUCAGGAUAUUCGACAAGUAAAUCAGUAGAUCAGAAGAAGAAGGGACAUGAGGAUCACCCAUGUAAGUA [JR_Exc004_Sub404] | 29.1 | 26.3 |
| CGCUAGUCAGGAUAUACGAACAUGUCAAAAGACGUGAAAAAACAUGAGGAUCACCCAUGUAGAAGGGACUAGCG [Mat - Exclusion 2 - JL mod - D17] | 16.2 | 14.9 |
| CUCAAGUAAGGAUAUGGAAGAAAAGAAGAGAAAGAAAAGAACCAGAAGGUACAUGAGGAUCACCCAUGUAAGAA [EteRNA is fun!] | 37.2 | 24.6 |
| CUCAAGUGAGGAUAUAAAAGAAAAGAAGAGAAAGAAAAGAAUUAGAAGGCACAUGAGGAUCACCCAUGUAAGAA [EteRNA is fun!] | 39.4 | 25.5 |
| CUCAAGUGAGGAUAUCAGUAGUAAAAAAAUAAAAUUACUACUGAGAAGGCACAUGAGGAUCACCCAUGUGCAAA [EX4 336: Super Stable 36] | 19.6 | 17 |
| CUCAAGUGAGGAUAUUAAAGAAAAGAAGAGAAAGAAAAGAAUAAGAAGGCACAUGAGGAUCACCCAUGUAAGAA [EteRNA is fun!] | 26.4 | 33 |
| CUCAUGUCAGGAUAUCAGUAGUAAAAAAAUAAAAUUACUACUGAGAAGGGACAUGAGGAUCACCCAUGUAAAAA [EX4 363: Super Stable 63] | 16.1 | 23.2 |
| CUCAUGUUAGGAUAUUAAUGAAAUGAAGUGAAAGAAAAGAAUAAGAAGGAACAUGAGGAUCACCCAUGUUAGAA [EteRNA is fun!] | 69.3 | 25.2 |
